Test results: PMC9504884, “Functional Interactions of Kluyveromyces lactis Telomerase Reverse Transcriptase with the Three-Way Junction and the Template Domains of Telomerase RNA”

Columns and labels:
Assay in all cases: EMSA; 1 nM RNA, tRNA competitor; 25 mM Tris-HCl pH 7.5, 50 mM KCl, 1 mM MgCl2, 1 mM DTT, 10% glycerol, 0.1% Triton, 0.5 mg/mL BSA, 1.7 ng/uL yeast tRNA, 1 nM RNA probe; 15 min on ice then 10 min room temperature; gel at 6 C
klTRBD klEst2 171-404 = biological target: T1, klTRBD klEst2 171-404 (Kluyveromyces lactis, UniProt Q6CSS0 171-404); conditions: protein: recombinant; tags: N-terminal His-SUMO, TEV-cleaved; label: 5'-32P when probe; hairpin (TBE) with template
T1 sequence: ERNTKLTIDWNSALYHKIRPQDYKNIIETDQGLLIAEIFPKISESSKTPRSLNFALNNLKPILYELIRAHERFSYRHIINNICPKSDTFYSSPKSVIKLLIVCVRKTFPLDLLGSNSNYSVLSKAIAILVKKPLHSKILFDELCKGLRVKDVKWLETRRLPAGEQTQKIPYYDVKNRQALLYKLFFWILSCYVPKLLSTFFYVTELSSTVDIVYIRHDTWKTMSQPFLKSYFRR

klTRBD klEst2 171-422 = biological target: T2, klTRBD klEst2 171-422 (Kluyveromyces lactis, UniProt Q6CSS0 171-422); conditions: protein: recombinant; tags: N-terminal His-SUMO, TEV-cleaved; label: 5'-32P when probe; hairpin (TBE) with template
T2 sequence: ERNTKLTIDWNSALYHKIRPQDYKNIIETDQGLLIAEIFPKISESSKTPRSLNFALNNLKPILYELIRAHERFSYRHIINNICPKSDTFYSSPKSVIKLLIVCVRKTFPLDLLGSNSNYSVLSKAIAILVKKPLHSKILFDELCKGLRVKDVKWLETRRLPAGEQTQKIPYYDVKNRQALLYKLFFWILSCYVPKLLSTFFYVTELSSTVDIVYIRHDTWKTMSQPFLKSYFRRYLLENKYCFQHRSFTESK

[1] = biological target: T3, klEst2 full-length (TERT) (Kluyveromyces lactis, UniProt Q6CSS0 1-861); conditions: protein: recombinant; tags: expressed in E. coli; His-SUMO tag described for the TRBD constructs, tag of full-length not clearly stated; label: 5'-32P when probe; hairpin (TBE) with template
T3 sequence: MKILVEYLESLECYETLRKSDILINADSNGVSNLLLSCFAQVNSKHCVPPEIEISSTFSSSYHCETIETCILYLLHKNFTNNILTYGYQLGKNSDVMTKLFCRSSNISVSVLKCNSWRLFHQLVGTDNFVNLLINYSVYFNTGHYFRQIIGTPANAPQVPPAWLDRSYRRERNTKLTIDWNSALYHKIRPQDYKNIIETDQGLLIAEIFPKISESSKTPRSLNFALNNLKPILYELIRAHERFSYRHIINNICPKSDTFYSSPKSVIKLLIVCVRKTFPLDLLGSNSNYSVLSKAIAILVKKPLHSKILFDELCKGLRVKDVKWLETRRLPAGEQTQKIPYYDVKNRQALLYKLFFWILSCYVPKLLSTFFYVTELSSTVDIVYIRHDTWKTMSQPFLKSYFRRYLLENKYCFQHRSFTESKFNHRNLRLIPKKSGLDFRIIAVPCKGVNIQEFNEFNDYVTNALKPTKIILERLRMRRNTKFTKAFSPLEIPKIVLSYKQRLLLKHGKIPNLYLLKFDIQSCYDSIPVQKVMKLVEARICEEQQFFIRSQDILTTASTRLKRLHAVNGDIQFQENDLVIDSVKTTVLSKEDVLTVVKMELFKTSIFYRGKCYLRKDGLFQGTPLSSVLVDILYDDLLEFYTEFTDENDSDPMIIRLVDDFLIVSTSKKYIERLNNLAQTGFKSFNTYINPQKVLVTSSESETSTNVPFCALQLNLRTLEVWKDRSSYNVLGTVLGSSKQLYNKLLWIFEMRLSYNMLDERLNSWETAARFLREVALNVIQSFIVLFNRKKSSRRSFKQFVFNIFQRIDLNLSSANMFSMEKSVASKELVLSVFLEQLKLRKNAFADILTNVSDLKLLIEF

B1: T + TBE (structured_RNA)
RNA: GGUAAGGACCAGUGCCACGAAAGUGGUACUUCAAAUCCGUACACCACAUACCUAAUCAAAACCG
B1: no binding (klTRBD klEst2 171-404); no binding (klTRBD klEst2 171-422); binds [1].
